B1: SPDGF (Apt35-FAM/cDNA12-BHQ1/cDNADCV) (mixed)
DNA 1: AAGGCTACGGCACGTAGAGCATCACCATGATCCTGTGTGGTCTATGTCGTCGTTCG
DNA 2: TGCCGTAGCCTT
DNA 3: AAGTATTACCAGAAACGAACGACGACATAGACCACA
B2: mSPDGF (mApt35-FAM/cDNA12-BHQ1/cDNADCV) (mixed)
DNA 1: AAGGCTACGGCACGATCTCGTAGTGGTCTGACTGCTGTGGTCTATGTCGTCGTTCG
DNA 2: TGCCGTAGCCTT
DNA 3: B1 DNA 3

Assays:
PDGF-BB [1] = target: T1, PDGF-BB (human, UniProt P01127 82-190); assay: structure-switching fluorescence
PDGF-BB [2] = target: T1, PDGF-BB; assay: structure-switching fluorescence; remark: listed apart in the source

T1 sequence (P01127 82-190): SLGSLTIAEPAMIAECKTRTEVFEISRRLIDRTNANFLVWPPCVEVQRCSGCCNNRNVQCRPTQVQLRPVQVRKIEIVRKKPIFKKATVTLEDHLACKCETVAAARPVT

Binder | binding signal (PDGF-BB [1]) | binding result (PDGF-BB [2])
B1 | ~6.9 fold fluorescence increase | 
B2 |  | no binding

From paper PMC10631208
